Laboratory results as given in patent US20140302028A1.

Tests used:
[1] = biological target: recombinant human FcRn (Sino Biological Inc.) (human) (UniProt P55899); assay: SPR (Biacore T100), human FcRn immobilised, pH 6, two-state model
[2] = biological target: recombinant mouse FcRn (R&D Systems) (mouse) (UniProt Q61559); assay: SPR (Biacore T100), mouse FcRn immobilised, pH 6, two-state model
[3] = biological target: recombinant human FcRn (Sino Biological Inc.) (human) (UniProt P55899); assay: SPR (Biacore T100), human FcRn immobilised, pH 6, two-state model, complex formation
[4] = biological target: recombinant mouse FcRn (R&D Systems) (mouse) (UniProt Q61559); assay: SPR (Biacore T100), mouse FcRn immobilised, pH 6, two-state model, complex formation
[5] = biological target: recombinant human FcRn (Sino Biological Inc.) (human) (UniProt P55899); assay: SPR (Biacore T100), human FcRn immobilised, pH 6, two-state model, complex stabilization
[6] = biological target: recombinant mouse FcRn (R&D Systems) (mouse) (UniProt Q61559); assay: SPR (Biacore T100), mouse FcRn immobilised, pH 6, two-state model, complex stabilization

Kd [1]: 0.034 µM | Kd [2]: 0.00666 µM | koff [3]: 0.313 s⁻¹ | kon [3]: 5.99e+06 M⁻¹ s⁻¹ | koff [4]: 0.0153 s⁻¹ | kon [4]: 159000 M⁻¹ s⁻¹ | kd (Complex Stabilization) [5]: 0.00155 s⁻¹ | kd (Complex Stabilization) [6]: 0.000107 s⁻¹
Substance: HUMIRA ® (antibody)
